Data taken from paper PMC3307221 (Analytical Chemistry, 2012).

Biological target: protective antigen of anthrax (Bacillus anthracis, strain , UniProt P13423)
Experiment: SPR

protective antigen of anthrax, sequence (P13423 whole entry, looked up): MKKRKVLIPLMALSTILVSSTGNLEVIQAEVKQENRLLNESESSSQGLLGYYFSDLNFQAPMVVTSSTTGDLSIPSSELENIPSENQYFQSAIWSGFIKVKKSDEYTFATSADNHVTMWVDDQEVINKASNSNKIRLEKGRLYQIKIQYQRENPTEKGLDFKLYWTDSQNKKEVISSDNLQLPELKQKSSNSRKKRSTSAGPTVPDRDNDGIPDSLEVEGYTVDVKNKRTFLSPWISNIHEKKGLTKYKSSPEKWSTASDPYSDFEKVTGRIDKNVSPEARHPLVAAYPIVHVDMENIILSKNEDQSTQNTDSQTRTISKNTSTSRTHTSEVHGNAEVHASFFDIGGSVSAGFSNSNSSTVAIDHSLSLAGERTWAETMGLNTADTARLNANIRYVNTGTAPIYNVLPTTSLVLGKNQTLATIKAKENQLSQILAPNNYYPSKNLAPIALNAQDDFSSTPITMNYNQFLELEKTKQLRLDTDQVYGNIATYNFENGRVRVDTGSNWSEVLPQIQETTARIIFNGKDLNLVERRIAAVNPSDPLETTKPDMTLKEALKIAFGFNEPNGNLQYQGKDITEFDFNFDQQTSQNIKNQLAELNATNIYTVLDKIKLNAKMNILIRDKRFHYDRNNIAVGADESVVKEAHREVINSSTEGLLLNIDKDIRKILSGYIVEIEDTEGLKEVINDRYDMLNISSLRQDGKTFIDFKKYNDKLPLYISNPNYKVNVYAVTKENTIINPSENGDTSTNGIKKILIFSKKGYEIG

B1: M18 scFv (scFv, V domains shown)
VH: EVQLQQSGPELVKPGASVKISCKDSGYAFNSSWMNWVKQRPGQGLEWIGRIYPGDGDSNYNGKFEGKAILTADKSSSTAYMQLSSLTSVDSAVYFCARSGLLRYAMDYWGQGTSVTVSS
VL: DIQMTQTTSSLSASLGDRVTVSCRASQDIRNYLNWYQQKPDGTVKFLIYYTSRLQPGVPSRFSGSGSGTDYSLTINNLEQEDIGTYFCQQGNTPPWTFGGGTKLEIK
koff: 0.00011 s⁻¹
kon: 597000 M⁻¹ s⁻¹
